The record followed here is paper PMC3834820, “Structural insight into LexA–RecA* interaction” (Nucleic Acids Research, 2013).

The target in data set [1] is LexA wt (UniProt P0A7C2 1-202). Put plainly: SPR; 150 nM LexA; LexA-operator SPR: 20 mM NaH2PO4 pH 7.3, 0.14 M NaCl, 0.005% P20, 25 C; RecA-SKBT25: 20 mM NaH2PO4 pH 7.3, 1 mM ATPgS, 2 mM MgCl2, 0.05 mM Ellman's reagent, on. The conditions noted are these: protein: recombinant; chain copies: 2; label: 3' TEG-biotin on S9; S7 pairs with the 3' 24 nt and S9 with the 5' 15 nt of S10; nick between S7 and S9; blunt.

Data set [2] concerns the molecule itself. Put plainly: cross-linking; intermolecular disulphide between Cys24 of two LexA(M24C) subunits on oxidation with 0.5 mM 1,10-phenanthroline and 0.1 mM CuSO4, 30 min, room temperature.

B1: tisB operator SPR fragment (dsDNA)
DNA 1: GTTACTACTCGAGCGATTACTGTTTATTTATACAGTAAA
DNA 2: TTTACTGTATAAATAAACAGTAAT
DNA 3: CGCTCGAGTAGTAAC
B1: the binding result in data set [1] is on record as “binds”.

B2: LexA(M24C), oxidized (disulphide-locked dimer in the DNA-binding state) (natural protein, E. coli, UniProt P0A7C2 1-202, looked up)
chain: MKALTARQQEVFDLIRDHISQTGCPPTRAEIAQRLGFRSPNAAEEHLKALARKGVIEIVSGASRGIRLLQEEEEGLPLVGRVAAGEPLLAQQHIEGHYQVDPSLFKPNADFLLRVSGMSMKDIGIMDGDLLAVHKTQDVRNGQVVVARIDDEVTVKRLKKQGNKVELLPENSEFKPIVVDLRQQSFTIEGLAVGVIRNGDWL
modifications: intermolecular disulphide bond between the Cys24 residues of the two subunits
notes: LexA repressor, E. coli, single-cysteine mutant M24C; The reduced form (20 mM DTT) was also used in the cleavage assay but is not made a molecule here; also called oxidized LexA(M24C); source: overexpressed from plasmid pLexAM24C, purified (Ni-NTA); oxidized with 0.5 mM 1,10-phenanthroline and 0.1 mM CuSO4, 30 min, room temperature
Regarding B2, the binding result in data set [2] was “binds”.
